From patent publication US20020119494A1 (Boehringer Ingelheim, published 2002) come the findings set out here.

No end group written: not given here.

Experiment in all cases: cell-based or functional assay
Test [1] concerns the target T1, FPRL-1 (formyl peptide receptor like-1) receptor (human, UniProt P25090 1-351).
T1 sequence: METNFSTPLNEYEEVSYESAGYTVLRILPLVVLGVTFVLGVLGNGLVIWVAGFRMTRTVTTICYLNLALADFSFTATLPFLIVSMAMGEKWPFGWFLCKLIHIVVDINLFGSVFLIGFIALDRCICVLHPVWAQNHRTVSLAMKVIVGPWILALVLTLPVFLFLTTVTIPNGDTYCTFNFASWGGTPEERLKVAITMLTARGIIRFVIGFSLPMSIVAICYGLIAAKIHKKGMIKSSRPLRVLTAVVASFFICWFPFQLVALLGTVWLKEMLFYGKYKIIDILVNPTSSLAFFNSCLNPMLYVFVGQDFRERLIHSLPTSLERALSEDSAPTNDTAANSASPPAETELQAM

Test [2] has as its target T1, FPRL-1 (formyl peptide receptor like-1) …. This is another data set of the same source.
Test [3] has the same target. The source holds these as a separate data set.
The target is the same in test [4]. The source holds these as a separate data set.

For the molecule WKYMVM (not fully specified (residue 6)) [W-peptide], the “Expression of TNFα in MonoMac 6 cells, fold induction at 3 h, W-peptide (1 µM)” value in test [1] came out at 1.03 fold induction. In test [2], the “Migration Index of MonoMac6 cells, W-peptide (10 nM)” value was 0.95 migration index (fold over control medium); the “Migration Index of MonoMac6 cells, W-peptide (100 nM)” value is 1.23 migration index (fold over control medium); the “Migration Index of MonoMac6 cells, W-peptide (1 µM)” value was 2.46 migration index (fold over control medium). Further, the “Expression of IL-8 in MonoMac 6 cells, fold induction at 3 h, W-peptide (1 µM)” value in test [3] came to 1.54 fold induction. Further, in test [4], the “Expression of MMP-12 in MonoMac 6 cells, fold induction at 3 h, W-peptide (1 µM)” value was found to be 1.51 fold induction.
